Substitutions are numbered along the chain they refer to. Blank lines part the entries; values can stand above or below the binder they belong to.
Assays:
mR1(core) H937A mutant = target: T1, mR1(core) H937A mutant (murine, UniProt P15919 384-1008, H937A); experiment: pull-down
T1 sequence (looked up): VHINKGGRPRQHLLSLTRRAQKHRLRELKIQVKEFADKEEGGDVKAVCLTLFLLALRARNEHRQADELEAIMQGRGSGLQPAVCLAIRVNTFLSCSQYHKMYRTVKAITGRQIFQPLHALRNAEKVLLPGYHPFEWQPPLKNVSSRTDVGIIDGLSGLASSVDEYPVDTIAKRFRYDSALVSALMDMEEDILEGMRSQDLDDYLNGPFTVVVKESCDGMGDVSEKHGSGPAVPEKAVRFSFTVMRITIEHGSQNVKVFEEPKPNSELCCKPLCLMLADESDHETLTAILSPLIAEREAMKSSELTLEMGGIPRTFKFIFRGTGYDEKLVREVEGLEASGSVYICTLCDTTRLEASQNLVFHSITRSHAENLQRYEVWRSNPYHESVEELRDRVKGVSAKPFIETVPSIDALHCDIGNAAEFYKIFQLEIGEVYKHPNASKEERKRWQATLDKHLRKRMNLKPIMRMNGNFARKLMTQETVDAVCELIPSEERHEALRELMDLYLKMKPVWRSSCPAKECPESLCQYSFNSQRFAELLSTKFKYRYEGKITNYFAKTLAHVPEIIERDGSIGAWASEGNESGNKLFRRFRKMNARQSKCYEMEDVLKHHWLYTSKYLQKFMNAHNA

mR1(core) E962A mutant = target: T2, mR1(core) E962A mutant (murine, UniProt P15919 384-1008, E962A); experiment: pull-down
T2 sequence (looked up): T1 sequence (looked up) with A554H, E579A

mR1(core) H942A mutant = target: T3, mR1(core) H942A mutant (murine, UniProt P15919 384-1008, H942A); experiment: pull-down
T3 sequence (looked up): T1 sequence (looked up) with A554H, H559A

[1] = target: T4, murine core RAG1 fused to maltose-binding protein, wild type (murine, UniProt P15919 384-1008); experiment: pull-down
T4 sequence (looked up): T1 sequence (looked up) with A554H

[2] = target: T5, murine core RAG1 fused to maltose-binding protein, wild type (murine), P15919; experiment: SEC; settings: remark: other sources report otherwise
T5 chain: T1 sequence (looked up) with A554H

binding result (mR1(core) H937A mutant): binds
binding result (mR1(core) E962A mutant): binds
binding result (mR1(core) H942A mutant): binds
binding result [1]: binds
B1: core RAG2 fused to glutathione S-transferase (domain or fragment, murine, UniProt P21784 1-387, looked up)
chain: MSLQMVTVGHNIALIQPGFSLMNFDGQVFFFGQKGWPKRSCPTGVFHFDIKQNHLKLKPAIFSKDSCYLPPLRYPATCSYKGSIDSDKHQYIIHGGKTPNNELSDKIYIMSVACKNNKKVTFRCTEKDLVGDVPEPRYGHSIDVVYSRGKSMGVLFGGRSYMPSTQRTTEKWNSVADCLPHVFLIDFEFGCATSYILPELQDGLSFHVSIARNDTVYILGGHSLASNIRPANLYRIRVDLPLGTPAVNCTVLPGGISVSSAILTQTNNDEFVIVGGYQLENQKRMVCSLVSLGDNTIEISEMETPDWTSDIKHSKIWFGSNMGNGTIFLGIPGDNKQAMSEAFYFYTLRCSEEDLSEDQKIVSNSQTSTEDPGDSTPFEDSEEFCFS

stoichiometry N [2]: 2
B2: murine core RAG1 fused to maltose-binding protein, wild type, P15919 384-1008 (domain or fragment)
chain: T1 sequence (looked up) with A554H

Reference: PMC2782368 (Journal of molecular biology, 2009)
